Results on 29 substances are retold here after article PMC11132685.

What is called stoichiometry N is a count of units in the complex or per binding partner.

Common to all, as to assay: SEC-MALS; purified NACHOs; oligomeric state; conditions not given
In general terms: SEC sorts molecules by how far they enter the pores of the column.

For assay [1], the target named is tetrabrachion-stabilised recombinant N2 NA (NACHO) of A/INDIANA/08/2011 (not stated | influenza A virus (H3N2) A/INDIANA/08/2011).
Assay [2] deals with tetrabrachion-stabilised recombinant N2 NA (NACHO) of A/HEILONGJIANGXIANGYANG/1134/2011 (not stated | influenza A virus (H3N2) A/HEILONGJIANGXIANGYANG/1134/2011).
Assay [3] addresses tetrabrachion-stabilised recombinant N2 NA (NACHO) of A/PORTOALEGRE/LACENRS2376/2014 (not stated | influenza A virus (H3N2) A/PORTOALEGRE/LACENRS2376/2014).
In assay [4] the target is tetrabrachion-stabilised recombinant N2 NA (NACHO) of A/NEWCALEDONIA/23/2016 (not stated | influenza A virus (H3N2) A/NEWCALEDONIA/23/2016).
Assay [5] concerns the target tetrabrachion-stabilised recombinant N2 NA (NACHO) of A/PERTH/16/2009 (not stated | influenza A virus (H3N2) A/PERTH/16/2009).
For assay [6], the target named is tetrabrachion-stabilised recombinant N2 NA (NACHO) of A/OHIO/62/2012 (not stated | influenza A virus (H3N2) A/OHIO/62/2012).
In assay [7] the target is tetrabrachion-stabilised recombinant N2 NA (NACHO) of A/MINNESOTA/11/2010 (not stated | influenza A virus (H3N2) A/MINNESOTA/11/2010).
Assay [8] deals with tetrabrachion-stabilised recombinant N2 NA (NACHO) of A/DAKAR/14/2014 (not stated | influenza A virus (H3N2) A/DAKAR/14/2014).
Assay [9] addresses tetrabrachion-stabilised recombinant N2 NA (NACHO) of A/HELSINKI/823/2013 (not stated | influenza A virus (H3N2) A/HELSINKI/823/2013).
The target in assay [10] is tetrabrachion-stabilised recombinant N2 NA (NACHO) of A/GAMBIA/G0071436/2012 (not stated | influenza A virus (H3N2) A/GAMBIA/G0071436/2012).
Assay [11] deals with tetrabrachion-stabilised recombinant N2 NA (NACHO) of A/NAGANO/2153/2017 (not stated | influenza A virus (H3N2) A/NAGANO/2153/2017).
Assay [12] addresses tetrabrachion-stabilised recombinant N2 NA (NACHO) of A/OHIO/13/2017 (not stated | influenza A virus (H3N2) A/OHIO/13/2017).
Assay [13] deals with tetrabrachion-stabilised recombinant N2 NA (NACHO) of A/STOCKHOLM/15/2014 (not stated | influenza A virus (H3N2) A/STOCKHOLM/15/2014).
Assay [14] has as its target tetrabrachion-stabilised recombinant N2 NA (NACHO) of A/INDIANA/18/2017 (not stated | influenza A virus (H3N2) A/INDIANA/18/2017).
Assay [15] addresses tetrabrachion-stabilised recombinant N2 NA (NACHO) of A/TEHRAN/996/2012 (not stated | influenza A virus (H3N2) A/TEHRAN/996/2012).
The target in assay [16] is tetrabrachion-stabilised recombinant N2 NA (NACHO) of A/SWITZERLAND/9715293/2013 (not stated | influenza A virus (H3N2) A/SWITZERLAND/9715293/2013).
For assay [17], the target named is tetrabrachion-stabilised recombinant N2 NA (NACHO) of A/HOKKAIDO/10H079/2011 (not stated | influenza A virus (H3N2) A/HOKKAIDO/10H079/2011).
Assay [18] concerns the target tetrabrachion-stabilised recombinant N2 NA (NACHO) of A/HONGKONG/3089/2017 (not stated | influenza A virus (H3N2) A/HONGKONG/3089/2017).
Assay [19] addresses tetrabrachion-stabilised recombinant N2 NA (NACHO) of A/ALASKA/251/2015 (not stated | influenza A virus (H3N2) A/ALASKA/251/2015).
The target of assay [20] is tetrabrachion-stabilised recombinant N2 NA (NACHO) of A/UTAH/11/2011 (not stated | influenza A virus (H3N2) A/UTAH/11/2011).
In assay [21] the target is tetrabrachion-stabilised recombinant N2 NA (NACHO) of A/POLAND/19B/2017 (not stated | influenza A virus (H3N2) A/POLAND/19B/2017).
For assay [22], the target named is tetrabrachion-stabilised recombinant N2 NA (NACHO) of A/TASMANIA/1018/2015 (not stated | influenza A virus (H3N2) A/TASMANIA/1018/2015).
The target in assay [23] is tetrabrachion-stabilised recombinant N2 NA (NACHO) of A/ESTONIA/91621/2015 (not stated | influenza A virus (H3N2) A/ESTONIA/91621/2015).
For assay [24], the target named is tetrabrachion-stabilised recombinant N2 NA (NACHO) of A/HELSINKI/941/2013 (not stated | influenza A virus (H3N2) A/HELSINKI/941/2013).
The target in assay [25] is tetrabrachion-stabilised recombinant N2 NA (NACHO) of A/XINJ…/1411/2012 (not stated | influenza A virus (H3N2) A/XINJ…/1411/2012).
Assay [26] deals with tetrabrachion-stabilised recombinant N2 NA (NACHO) of A/ONTARIO/RV3236/2016 (not stated | influenza A virus (H3N2) A/ONTARIO/RV3236/2016).
The target of assay [27] is tetrabrachion-stabilised recombinant N2 NA (NACHO) of A/WISCONSIN/16/2015 (not stated | influenza A virus (H3N2) A/WISCONSIN/16/2015).
The target in assay [28] is tetrabrachion-stabilised recombinant N2 NA (NACHO) of A/STOCKHOLM/32/2014 (not stated | influenza A virus (H3N2) A/STOCKHOLM/32/2014).
Assay [29] has as its target tetrabrachion-stabilised recombinant N2 NA (NACHO) of A/HANOI/ELI15597/2015 (not stated | influenza A virus (H3N2) A/HANOI/ELI15597/2015).

As for “tetrabrachion-stabilised recombinant N2 NA (NACHO) of A/INDIANA/08/2011 (enzyme)”, the stoichiometry N in assay [1] worked out at 4. Turning to “tetrabrachion-stabilised recombinant N2 NA (NACHO) of A/HEILONGJIANGXIANGYANG/1134/2011 (enzyme)”, the stoichiometry N in [2] was 4. With “tetrabrachion-stabilised recombinant N2 NA (NACHO) of A/PORTOALEGRE/LACENRS2376/2014 (enzyme)”, the stoichiometry N in assay [3] worked out at 4.

Take “tetrabrachion-stabilised recombinant N2 NA (NACHO) of A/NEWCALEDONIA/23/2016 (enzyme)”: the stoichiometry N in assay [4] amounted to 4. With “tetrabrachion-stabilised recombinant N2 NA (NACHO) of A/PERTH/16/2009 (enzyme)”, the stoichiometry N in [5] was determined as 4. With “tetrabrachion-stabilised recombinant N2 NA (NACHO) of A/OHIO/62/2012 (enzyme)”, the stoichiometry N in [6] worked out at 4. For “tetrabrachion-stabilised recombinant N2 NA (NACHO) of A/MINNESOTA/11/2010 (enzyme)”, the stoichiometry N in assay [7] worked out at 4. Consider “tetrabrachion-stabilised recombinant N2 NA (NACHO) of A/DAKAR/14/2014 (enzyme)”, for which the stoichiometry N in assay [8] was determined as 4.

“tetrabrachion-stabilised recombinant N2 NA (NACHO) of A/HELSINKI/823/2013 (enzyme)”: the stoichiometry N in assay [9] came out at 4. Regarding “tetrabrachion-stabilised recombinant N2 NA (NACHO) of A/GAMBIA/G0071436/2012 (enzyme)”, the stoichiometry N in assay [10] came out at 4. Regarding “tetrabrachion-stabilised recombinant N2 NA (NACHO) of A/NAGANO/2153/2017 (enzyme)”, the stoichiometry N in assay [11] stood at 4. For the substance “tetrabrachion-stabilised recombinant N2 NA (NACHO) of A/OHIO/13/2017 (enzyme)”, in [12], the stoichiometry N came to 4. As for “tetrabrachion-stabilised recombinant N2 NA (NACHO) of A/STOCKHOLM/15/2014 (enzyme)”, the stoichiometry N in [13] was found to be 4. As for “tetrabrachion-stabilised recombinant N2 NA (NACHO) of A/INDIANA/18/2017 (enzyme)”, the stoichiometry N in assay [14] came to 4. For “tetrabrachion-stabilised recombinant N2 NA (NACHO) of A/TEHRAN/996/2012 (enzyme)”, in [15], the stoichiometry N was 4. Consider “tetrabrachion-stabilised recombinant N2 NA (NACHO) of A/SWITZERLAND/9715293/2013 (enzyme)”, for which the stoichiometry N in assay [16] was 4. With “tetrabrachion-stabilised recombinant N2 NA (NACHO) of A/HOKKAIDO/10H079/2011 (enzyme)”, the stoichiometry N in [17] was 4. Turning to “tetrabrachion-stabilised recombinant N2 NA (NACHO) of A/HONGKONG/3089/2017 (enzyme)”, the stoichiometry N in assay [18] was 4. On to “tetrabrachion-stabilised recombinant N2 NA (NACHO) of A/ALASKA/251/2015 (enzyme)”, for which the stoichiometry N in assay [19] stood at 4.

For “tetrabrachion-stabilised recombinant N2 NA (NACHO) of A/UTAH/11/2011 (enzyme)”, the stoichiometry N in assay [20] was determined as 4.

Regarding “tetrabrachion-stabilised recombinant N2 NA (NACHO) of A/POLAND/19B/2017 (enzyme)”, in [21], the stoichiometry N was determined as 4. With “tetrabrachion-stabilised recombinant N2 NA (NACHO) of A/TASMANIA/1018/2015 (enzyme)”, the stoichiometry N in assay [22] came to 4. For “tetrabrachion-stabilised recombinant N2 NA (NACHO) of A/ESTONIA/91621/2015 (enzyme)”, the stoichiometry N in assay [23] was 4. For “tetrabrachion-stabilised recombinant N2 NA (NACHO) of A/HELSINKI/941/2013 (enzyme)”, the stoichiometry N in assay [24] worked out at 4.

On to “tetrabrachion-stabilised recombinant N2 NA (NACHO) of A/XINJ…/1411/2012 (enzyme)”, for which the stoichiometry N in assay [25] was found to be 4. As for “tetrabrachion-stabilised recombinant N2 NA (NACHO) of A/ONTARIO/RV3236/2016 (enzyme)”, the stoichiometry N in [26] turned out to be 4. Regarding “tetrabrachion-stabilised recombinant N2 NA (NACHO) of A/WISCONSIN/16/2015 (enzyme)”, the stoichiometry N in assay [27] came to 4. For “tetrabrachion-stabilised recombinant N2 NA (NACHO) of A/STOCKHOLM/32/2014 (enzyme)”, the stoichiometry N in assay [28] was 4.

Turning to “tetrabrachion-stabilised recombinant N2 NA (NACHO) of A/HANOI/ELI15597/2015 (enzyme)”, in assay [29], the stoichiometry N was 4.
